This note sets out measurements from patent US20240228986A1, “ENGINEERED CELLS, ENZYMES, AND METHODS FOR PRODUCING CANNABINOIDS” (priority 2021, published 2024).

One test deals with olivetolic acid. In words: MPT fusions with GPS1.1 vs unfused MPTs, OA feed (Example 8, Table 9). Type of test: cell-based, Yarrowia. The note with it: 2 mM olivetolic acid, 48 h quench. Put shortly:
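Yeast strain sCL-SE-0128 carrying MPT or GPS1.1–MPT fusion plasmids, precultured 48 h in YNB/2% glucose/0.5% casamino acids/100 mM MES pH 6.5. Assay medium was the same plus 2 mM olivetolic acid, 30 °C. Cultures were ethanol-quenched at 48 h total growth, and CBGA and FCBGA were measured by HPLC-MS with internal standard; values are replicate means ± SD.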

A further test deals with divarinic acid. In words: MPT fusions with GPS1.1 vs unfused MPTs, DVA feed (Example 9, Table 11). Type of test: cell-based, Yarrowia. The conditions noted are these: 2 mM divarinic acid, 2% glucose, quenched after 48 h; strain sCL-SE-0128. Put shortly:
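Strain sCL-SE-0128 transformed with MPT or fused-MPT plasmids, several colonies each, precultured 48 h in YNB/glucose/casamino acids/MES pH 6.5. Assay medium carried 2 mM divarinic acid; cultures quenched with ethanol at 48 h total growth and CBGVA and FCBGVA quantified by HPLC-MS against internal standard, averaged over replicates.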

B1: GPS1.1-F11-MPT4: fusion of GPS1.1 and MPT4 via F11 linker, SEQ ID NO: 16 (protein)
chain: MSKAKFESVFPRISEELVQLLRDEGLPQDAVQWFSDSLQYNCVGGKLNRGLSVVDTYQLLTGKKELDDEEYYRLALLGWLIELLQAFWLVSDDIMDESKTRRGQPCWYLKPKVGMIAIWDAFMLESGIYILLKKHFRQEKYYIDLVELFHDISFKTELGQLVDLLTAPEDEVDLNRFSLDKHSFIVRYKTAYYSFYLPVVLAMYVAGITNPKDLQQAMDVLIPLGEYFQVQDDYLDNFGDPEFIGKIGTDIQDNKCSWLVNKALQKATPEQRQILEDNYGVKDKSKELVIKKLYDDMKIEQDYLDYEEEVVGDIKKKIEQVDESRGFKKEVLNAFLAKIYKRQKGGAEAAAKEAAAKAGGSGGGSGGGGSGGSGGGGSGGGGSMSDNSIATKILNFGHTCWKLQRPYVVKGMISIACGLFGRELFNNRHLFSWGLMWKAFFALVPILSFNFFAAIMNQIYDVDIDRINKPDLPLVSGEMSIETAWILSIIVALTGLIVTIKLKSAPLFVFIYIFGIFAGFAYSVPPIRWKQYPFTNFLITISSHVGLAFTSYSATTSALGLPFVWRPAFSFIIAFMTVMGMTIAFAKDISDIEGDAKYGVSTVATKLGARNMTFVVSGVLLLNYLVSISIGIIWPQVFKSNIMILSHAILAFCLIFQTRELALANYASAPSRQFFEFIWLLYYAEYFVYVFI
modifications: GPS1.1-F11-MPT4, geranyl diphosphate synthase, membrane-bound prenyltransferase fusion protein
Regarding B1, in the test with olivetolic acid (2% glucose, strain sCL-SE-0128), the CBGA is 200 ± 3 µM and the FCBGA amounted to 24 ± 1 µM. In the test with olivetolic acid (product ratio), the CBGA/FCBGA is listed as 8.2. In the test with divarinic acid, this molecule gave a CBGVA of 45 ± 2 µM and an FCBGVA of 0 ± 0 µM.
